Source: US20240082360A1, “METHODS TO TREAT HEPATITIS DELTA VIRAL INFECTIONS” (Eiger Biopharmaceuticals, Inc., priority 2019, published 2024)

Key:
HDV [1] = settings: cited from earlier work
HDV [2] = settings: HBV/HDV co-infected mice; four weeks; cited from earlier work
HBV = settings: cited from earlier work
HDV [3] = test: Phase 2 LIMT study: Lambda for 48 weeks in HDV patients, with two liver-biopsy case reports; assay type: in vivo, human; design: key to fibrosis score (ISHAK) in liver biopsy following Lambda treatment / fibrosis score (ISHAK) in post-treatment biopsy: F5: incomplete cirrhosis; F1: mild portal fibrosis
Source text: See also International Application No. PCT/US2019/048038 for description of this therapy. Impact of Lambda therapy on liver histology was not assessed in the LIMT study. In this example, two case reports of regression of liver fibrosis following treatment in HDV patients from the LIMT study are provided.
Two patients from the LIMT study, who had liver biopsies prior to study randomization, treated with subcutaneous injections of Lambda 180 mcg once weekly for 48 weeks, followed by a 24 week follow-up period, were evaluated with liver biopsy 18 months after last Lambda injection. Liver biopsies, staged according to the ISHAK scoring system, were compared with results of historical biopsies of the patients. HDV RNA viral load and ALT levels were assessed at baseline (BL), end of treatment (EOT) and end of study (EOS). Fibroscan® was performed at BL and EOS.
FibroScan is a specialized ultrasound machine that measures fibrosis (scarring) and steatosis (fatty change) in the liver. The Fibroscan device (Echosens) works by measuring shear wave velocity. In this technique, a 50-MHz wave is passed into the liver from a small transducer on the end of an ultrasound probe. The probe also has a transducer on the end that can measure the velocity of the shear wave (in meters per second) as this wave passes through the liver. The shear wave velocity can then be converted into liver stiffness, which is expressed in kilopascals. Essentially, the technology measures the velocity of the sound wave passing through the liver and then converts that measurement into a liver stiffness measurement; the entire process is often referred to as liver ultrasonographic elastography. See additional discussion in Afdhal, N.H., Gastroenterol Hepatol (N Y). 8(9): 605-607 (2012).

HDV [4] = settings: Lambda for 48 weeks; patients with HDV and compensated liver disease; cited from earlier work

| Molecule | patients with undetectable HDV RNA (HDV [1]; 24 weeks post-treatment follow-up) | HDV patients with undetectable HDV RNA (HDV [1]; end of 48 weeks treatment, 180 mcg monotherapy, Robogene 2.0 assay) | reduction in HDV-RNA levels (HDV [2]) | difference between pegylated interferon alfa and pegylated interferon lambda treatment (HBV; end of the treatment period) | declines in viremia as compared to pegylated interferon alfa (HBV; midpoint of treatment (24 weeks)) | virologic rebound (HBV; post-treatment, versus pegylated interferon alfa) | HDV RNA level at EOS (HDV [3]; Patient 1, 24 week follow-up after 48 weeks Lambda, BL 3.7 log10) | Fibroscan score at EOS (HDV [3]; Patient 1, BL 20 kPa) | ALT at EOS (HDV [3]; Patient 1, BL 169 U/L) | ALT at EOT (HDV [3]; Patient 1, BL 169 U/L) | HDV RNA level at EOT (HDV [3]; Patient 1, Lambda 180 mcg once weekly 48 weeks, BL 3.7 log10) | fibrosis score (ISHAK) in liver biopsy following Lambda treatment (HDV [3]; Patient 1, biopsy 18 months after last Lambda injection, historical biopsy F5) | HDV RNA at EOS (HDV [3]; Patient 2, 24 week follow-up after 48 weeks Lambda, BL 4.9 log10) | Fibroscan score at EOS (HDV [3]; Patient 2, BL 7.7 kPa) | ALT at EOS (HDV [3]; Patient 2, BL 159 U/L) | ALT at EOT (HDV [3]; Patient 2, BL 159 U/L) | HDV RNA at EOT (HDV [3]; Patient 2, Lambda 180 mcg once weekly 48 weeks, BL 4.9 log10) | fibrosis score (ISHAK) in post-treatment biopsy (HDV [3]; Patient 2, biopsy 18 months after last Lambda injection, historical biopsy F4 (marked bridging fibrosis)) | durable virologic response (HDV RNA below limit of quantification at 24 weeks post-treatment) (HDV [4]) |
| --- | --- | --- | --- | --- | --- | --- | --- | --- | --- | --- | --- | --- | --- | --- | --- | --- | --- | --- | --- |
| interferon alfa | 0% | 13% | – | – | – | – | – | – | – | – | – | – | – | – | – | – | – | – | – |
| Lambda: pegylated form of interferon lambda, a type III interferon signalling through interferon lambda receptors (protein, UniProt Q8IU54 20-200, looked up, PEG (peginterferon lambda-1a), pegylated form of interferon lambda, a type III interferon signalling through interferon lambda receptors) Interferon lambda-1: GPVPTSKPTTTGKGCHIGRFKSLSPQELASFKKARDALEESLKLKNWSCSSPVFPGNWDLRLLQVRERPVALEAELALTLKVLEAAAGPALEDVLDQPLHTLHHILSQLQACIQPQPTAGPRPRGRLHHWLHRLQEAPKKESAGCLEASVTFNLFRLLTRDLKYVADGNLCLRTSTHPEST | – | – | 1.5 log | no difference | more pronounced declines in viremia | greater virologic rebound | 2.6 log10 | 9.9 kPa | 54 U/L | 55 U/L | undetectable | F1 | 3.6 log10 | 11.1 kPa | 162 U/L | 44 U/L | undetectable | F1 | 36% |
